The values that follow come from the DeepSol protein solubility set.

This series can be described thus: soluble on expression in E. coli; label from the status in PepcDB or PDB records.
Turning to “MGSSHHHHHHSSGLVPRGSHMKAMNKVWVIGDASVDLVPEKQNSYLKCPGGASANVGVCVARLGGECGFIGCLGDDDAGRFLRQVFQDNGVDVTFLRLDADLTSAVLIVNLTADGERSFTYLVHPGADTYVSPQDLPPFRQYEWFYFSSIGLTDRPAREACLEGARRMREAGGYVLFDVNLRSKMWGNTDEIPELIARSAALASICKVSADELCQLSGASHWQDARYYLRDLGCDTTIISLGADGALLITAEGEFHFPAPRVDVVDTTGAGDAFVGGLLFTLSRANCWDHALLAEAISNANACGAMAVTAKGAMTALPFPDQLNTFLSSHSLAQAMTVK”, the “soluble on expression in E. coli” value is on record as “soluble”. As for “GETLDGEAALQAAIARLAAGDIVAIKGIGGFHLACDAGNPAAVATLRARKHRPAKPLAVMLPTATGLPAAAAALMGSPAAPIVLIAKAQVSGLCDEIAPGLAEVGVMLPSNPLQHLLLQGLARPIVMTSGNLSGRPPALSNAQALNELADIADGFLLHNRDIVQRMDDSLVRSSGEMLRRARGYVPDALPL”, the entry is “not soluble”; as for “MAWTFDEKSPIYLQIAYRVKLKIASKELSMGQQLLPVREFAQEAGVNPNTVQRAFQELEKEGLVYSARTSGRFVTEDEKLIDQKRHEIAQTLMKNFVTEMTAIGFSSPEIKTIITDYIEQTGKDL”, “not soluble”; as for “MSLEVVLWDFDGVIFDSMHLKNEGFRALFQKHGNKNQESLKQFEVYHYQSGGISRNEKIQYFYNEILKTPIAQEEVDALALEFGTIIEQKLFDREHLNSEVMAFIDKHYKNHVFHIASAALHSELQVLCEFLGIIKYFKSVEGSPPNKPKIIANIIQKYAYNPGRMLMIGDSVNDYESAQANEVAFLGYNSKVLKNLVGQNGYQGKYLESFKGFDLQNFIKEGHHHHHH”, “soluble”. As for “MGSDKIHHHHHHMKRLITQALDGEAGCILSDCEQYRYRLWREWDRSAPGLGFIMLNPSSADHQVNDPTITRCLQRALAGKYGRLEVVNLFPLRSTDPDGLLTHPAPLGDRPDRNECAIMDALDRCSLVICAWGAHKAAPARAAEVLRIVRMCGRGNLLYHLGLNKDGSPKHPLYIAKTKRPEPFTSIPVTQVNREYAPHR”, the entry is “not soluble”. The same measure for “MGSDKIHHHHHHMRVNSQSNHDVSPAPSGVVLEAADPAELLVRAQKTLGLLSPLLSPLAQAFHDRGHRLYLVGGSVRDALLDELGHDLDCTTDARPEVVSAILEEYAPVVWDTGIEFGTVSAEKDGQQIEITTFRSDVYDGQSRNPEVQFGDTLEGDLIRRDFTVNAMAMEILPDGSMQFHDPVGGMNDLVAGLLDTPATPQQSFNDDPLRMLRAARFVSQLGFDLAPRVRHAMTEMADQITRITAERVQVELDKMICGKVPWDGIDVMVDTGLADIIYPEISALRLTQDEHHQHKDVYAHSLTVLRQAMDQEEDGPDVVLRWAALMHDCGKPDTREFSPEGRVSFHQHEIVGARLMRHRMRALKYSKHTIRDVSELIRLHMRFHGFSEGEWTDSAVRRYVTDAGDLLPRLHKLVRADCTTRNKKKAERLQKTYDHLEDRIADIAAKEDLAKVRPDLDGNEIMEILDIKAGPQVGQAWKFLKELRLERGPLEREDAILELKKWWYEQ”: “not soluble”; for “DYRPGGFHPAFKGEPYKDARYILVRKLGWGHFSTVWLAKDMVNNTHVAMKIVRGDKVYTEAAEDEIKLLQRVNDADNTKEDSMGANHILKLLDHFNHKGPNGVHVVMVFEVLGENLLALIKKYEHRGIPLIYVKQISKQLLLGLDYMHRRCGIIHTDIKPENVLMEIVDSPENLIQIKIADLGNACWYDEHYTNSIQTREYRSPEVLLGAPWGCGADIWSTACLIFELITGDFLFEPDEGHSYTKDDDHIAQIIELLGELPSYLLRNGKYTRTFFNSRGLLRNISKLKFWPLEDVLTEKYKFSKDEAKEISDFLSPMLQLDPRKRADAGGLVNHPWLKDTLGMEEIRVPDRELYGSGSDIPGWFEEVRDHKRH”: “soluble”; for “GPLGSGALKWVLCNYDFQARNSSELSVKQRDVLEVLDDSRKWWKVRDPAGQEGYVPYNILTPYPAAAS”: “soluble”. As for “SARRYDELPHYPGIVDGPAALASFPETVPAVPGPYGPHRPPQPLPPGLDSDGLKREKDEIYGHPLFPLLALVFEKCELATCSPRDGAGAGLGTPPGGDVCSSDSFNEDIAAFAKQVRSERPLFSSNPELDNLMIQAIQVLRFHLLELEKGKMPIDLVIEDRDGGCREDFEDYPASCPSLPDQNNMWIRDHEDSGSVHLGTPGPSSGGLASQSGDNSSDQGDGLDTSVASPSSGGEDEDLDQERRRNKKRGIFPKVATNIMRAWLFQHLSHPYPSEEQKKQLAQDTGLTILQVNNWFINARRRIVQPMIDQSNRTGQGAAFSPEGQPIGGYTETQPHVAVRPPGSVGMSLNLEGEWHYL”, the “soluble on expression in E. coli” value was “soluble”. “MVDKNSLRKLMLLKRAELNDLEKSHLDQKINQKLMAFLITRPTIKNLALYIPIKNEVAFLDNFLDFLKLNKITSCFPSIVDQFNMKFIDQNNNEINPNDIDCFFIPLLAFNKANHRIGFGKGYYDRYLSLTSKKQLKIGIAYDFQYAEFTNDPWDYQLDLIICNGMAGDPLEHHHHHH”: the “soluble on expression in E. coli” value is listed as “soluble”. In the case of “MENSSDPRTQSAATASLSEMIATITKTFIIAHVDDSDEHLAQALVYNAGRLAWRMREQGVHTDYKTSLSDVVTDADRAAEEFVSGVLTTLRPEDGIVGEEGATRNSTSGRTWVIDPVDGTYNFVNGSDFWCSALALIEGEPEDPTSVIFGAVHRPAMGYTWFGGPEIPTTCDGQPVAKLENKSTELINFATYLNPPCLQQPEIVTRWLTIAQAFLSWRMMGSGSVELANVADGTIGAYVQHSVKDWDWLPGRALVEGAGGKCIKVESGGVTWSIASNPQATDEVAAMLSR”, the “soluble on expression in E. coli” value is listed as “not soluble”. As for “MGSDKIHHHHHHMSDEGRHKPTSAPNRVFMMKGMDKLRYQQDFLNIRPIFTAGEQEYLTGLSDRLPLSVLTGSVRNIEEIGIDFVYSSAKLEGNTYNQYDTQALLKLGQTAGGKLYSDAVMLINLRESYRHLLSGLDSPEPFDWLDFLKTTHSLISENLLEKGSGGVVRRDSVTISGTDYTPLSNPQSLDTELKWLLQEAPKIENPFDRAVYLHNNLAYLQYFKDCNKRTARNCMTLSLMRSGFFPCVFSPDSYPAYAEAVVAYYETGDYGLFKKYFISAYENTVNKYGPQPDMDIFRNFSL”, the entry is “not soluble”.

As for “MINRRYELFKDVSDADWNDWRWQVRNRIETVEELKKYIPLTKEEEEGVAQCVKSLRMAITPYYLSLIDPNDPNDPVRKQAIPTALELNKAAADLEDPLHEDTDSPVPGLTHRYPDRVLLLITDMCSMYCRHCTRRRFAGQSDDSMPMERIDKAIDYIRNTPQVRDVLLSGGDALLVSDETLEYIIAKLREIPHVEIVRIGSRTPVVLPQRITPELVNMLKKYHPVWLNTHFNHPNEITEESTRACQLLADAGVPLGNQSVLLRGVNDCVHVMKELVNKLVKIRVRPYYIYQCDLSLGLEHFRTPVSKGIEIIEGLRGHTSGYCVPTFVVDAPGGGGKTPVMPNYVISQSHDKVILRNFEGVITTYSEPINYTPGCNCDVCTGKKKVHKVGVAGLLNGEGMALEPVGLERNKRHVQE”, the “soluble on expression in E. coli” value is given as “soluble”.

Take “MSDADPKVPHRGHELLDVLARLGGSARNAQIAQVMDVSEETVRRLVKTLAKQGKVERVHGGTYLRGSQDAPMYSGALEQQPKEKTRIAKGVLELIRDGMTLFINVGSTTTYVAEQLRERRDLTIVTNSISTVASLADHNGSRVFLAGGEVSRSERGCFGRATEDFARRFAYDVLVIGADAMSPELGVLAANPREAELTRALLGNATRVIVAADYRKFSAIAPCIAAPLEAITDLVTDAAPPDALQDALDRCGVATHLAAKSGRITTRTPPPQDVGHSNTNRKTLSFPTEVSLEHHHHHH”: the “soluble on expression in E. coli” value was “soluble”. The same measure for “MAHHHHHHMSATPPPPPPPSSNASTGYPHTRASPGTYRGAGRGAYSRGPSYQSSGSSPSSSPIYTSGPSRRGGGNTRVRVHTYGFVHADPAASLAAAPPASHTSAPRATPDVATPPLPSASSAASPPLSSISSDVLSSLNASVQESLSGYLYTDAIELAQRLFDLEASYAHLHLLAHCYTVSGATGTAYRLLQHYYPFLELHVTRPRTAGASTSAAGGAAGGVGSGVLPFDARRTWTASYGVHPSQHPFSSGMPSATAAVTFSASSNENNLTSDEFELGYETVDLQSQWDCQYLLGVCCYRTQHYEDGARVLSQLLYVCHQVTTTSSVLRRRLQQLRQQQQQVTVRSDTSEEDDAGVAAAVRATERQLAGLCLRDGGAHFAGALLVGSVREASPAAPDRG”: “not soluble”. With “ERGKFAAVFNDITERRLMEDELRRQEQSHRLVLDNIPDIIARFDRELRHLYVSAAITRVTGFPPEHFIGRTNREIGMPDELVDRWDAAINEVFSSGREQRLEFTYQSPRGLRHFETTLIPERGADDSSAAVLVVNHD”, the “soluble on expression in E. coli” value is listed as “not soluble”. Consider “MGSDKIHHHHHHMRRIRTLLSKKPSKLVFNLRKYAAFRQAWKSINVNRTSYSKTRRHYDAVVIGSDEVWNIQNPTFAMMPEYFGRGLNAKNIITYAPSSSKTTYADVAQNPLLAEGMRNIHHFSARDRNTFEIVEKIVNKPVTMVLDPTFLVEYDEEVEEAGVNSHGYVLVYTYQFDRLKIEKTRRFARSRGLRLISPCFYNDWCDEVVPCTPFGFLGLIRDAEYVVTDTFHGSIFSILYGKHFGSYASEKIKVAALLSALGLADRELGGVDDIGSVLDARIDYGRVRTCIEQERDVSLNYLRQALAPAG”, for which the “soluble on expression in E. coli” value is “not soluble”. Take “GPGSMRNLLGESAVSSLVIEEPTKVAMTTSPTAVLNSSMSTDTDSTAVSPARVKGVSPQTKANGNSNGDGSTAIRGQSNDKQLEAPTEVQYRAVEVMVVDRGTQTTTTVGCQTDPEPSQSPVGGAMPFHRGFCPRCTCCCRGVVRDYPWRNAREEEDRSSRFQEELETIQKSIDMMIARYNLPPPPMPRY”: the “soluble on expression in E. coli” value is “not soluble”. As for “MGSDKIHHHHHHMHVFNYGRSYLERGDARPIYLPELPLVRGALLPQAPLDMAGALRDAAPDAWGRRVIINRLMGLKGVGAHAVEFDELTYLLHSGSDRIGALDFQTSPDRYRPREAENATLEELLEAAERVDRGEPIPPALDKALFHGSSIGGARPKALIEDGQEKFIAKFSATNDTYAIVKAEYVAMRLAKEAAGLTVAAVRLVKANGKDVLLVKRFDRERTGAGWTRRAMVSALTLLGLSEMQARYASYHDLTDIIRARFTEPRDSLRELYGRMVFNVLSGNTDDHARNHAAFWNGESLALTPAYDLCPQQRTGREANQAMLIGQEDRRSRLETCRLAASAFLLNDVEARALIHAQIDAIGAAWDGICDEADLSKIDRAFLWRRQFLNDYAFEGFGR”, the entry is “not soluble”; as for “MSLGMASHPPIPILELADHIERLKANDNLKFSQEYESIDPGQQFTWEHSNLEVNKPKNRYANVIAYDHSRVLLSAIEGIPGSDYVNANYIDGYRKQNAYIATQGSLPETFGDFWRMIWEQRSATVVMMTKLEERSRVKCDQYWPSRGTETHGLVQVTLLDTVELATYCVRTFALYKNGSSEKREVRQFQFTAWPDHGVPEHPTPFLAFLRRVKTCNPPDAGPMVVHCSAGVGRTGCFIVIDAMLERIKHEKTVDIYGHVTLMRAQRNYMVQTEDQYIFIHDALLEAVTCGNTEVPARNLYAYIQKLTQIETGENVTGMELEFKRLEGHHHHHH”, “soluble”; as for “MIKATDRKLVVGLEIGTAKVAALVGEVLPDGMVNIIGVGSCPSRGMDKGGVNDLESVVKCVQRAIDQAELMADCQISSVYLALSGKHISCQNEIGMVPISEEEVTQEDVENVVHTAKSVRVRDEHRVLHVIPQEYAIDYQEGIKNPVGLSGVRMQAKVHLITCHNDMAKNIVKAVERCGLKVDQLIFAGLAASYSVLTEDERELGVCVVDIGGGTMDIAVYTGGALRHTKVIPYAGNVVTSDIAYAFGTPPSDAEAIKVRHGCALGSIVGKDESVEVPSVGGRPPRSLQRQTLAEVIEPRYTELLNLVNEEILQLQEQLRQQGVKHHLAAGIVLTGGAAQIEGLAACAQRVFHTQVRIGAPLNITGLTDYAQEPYYSTAVGLLHYGKESHLNGEAEVEKRVTASVGSWIKRLNSWLRKEF”, “not soluble”.
